Our source for the CD 203c expression on basophils, mean % inhibition of IgE binding to Phl p 12 and histamine release (fold reduction) values is patent US20080286311A1.

The target of test [1] is basophils from house dust mite allergic patients.
The target of test [2] is serum IgE of profilin-sensitised (Phl p 12-allergic) patients. Kind of test: fluid phase inhibition: sera of six patients preincubated with 10 µg Phl p 12, then ELISA on plate-bound Phl p 12. A general note: ELISA stands for enzyme-linked immunosorbent assay.
For test [3] the target is unchanged. The test is described as follows: fluid phase inhibition: sera of six patients preincubated with 10 µg MP12, then ELISA on plate-bound Phl p 12.
Test [4] addresses basophils (granulocytes) from Phl p 12-allergic patients.

As for “rDer p 2 hybrid (aa 54-129+1-53) (from UniProt P49278)”, in test [1], the CD 203c expression on basophils was determined as 10 fold reduced.

B1: Phl p 12 wild-type (timothy grass pollen profilin) (protein)
chain: MSWQTYVDEHLMCEIEGHHLASAAILGHDGTVWAQSADFPQFKPEEITGIMKDFDEPGHLAPTGMFVAGAKYMVIQGEPGAVIRGKKGAGGITIKKTGQALVVGIYDEPMTPGQCNMVVERLGDYLVEQGM
On to B1, for which, in test [2], the mean % inhibition of IgE binding to Phl p 12 is 86%.

B2: MP12 (reshuffled Phl p 12 derivative) (protein)
chain: MEPGAVIRGKKGAGGITIKKTGQALVGIYDEPMTPGQCNMVVERLGDYLVEQGMMSWQTYVDEHLMCEIEGHHLASAAILGHDGTVWAQSADFPQFKPEEITGIMKDFDEPGHLAPTGMFVAGAKYMVIQGHHHHHH
Take B2: in test [3], the mean % inhibition of IgE binding to Phl p 12 turned out to be 31.2%. This molecule had a histamine release (fold reduction) in test [4] of 1000.
